Assay results published in the supplement of paper PMC9732359.
± gives the uncertainty stated by the source.

Assay: protein stability index of a GFP-peptide fusion (yeast GPS) (PSI 1-4); higher = more stable; sorted into four equal gates, so the index is relative within each strain
Summary of the method: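 Tiled 17-residue yeast protein peptides were fused downstream of GFP in a plasmid that also expresses Cherry, and the pooled library was carried in yeast. Mid-log cultures in leucine-free medium were sorted into four equal gates by GFP/Cherry fluorescence ratio, and plasmids from each gate were PCR-amplified and Illumina-sequenced, with reads assigned to strains by barcodes. The protein stability index for each peptide was each gate's read frequency times its gate number, summed.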

With SEYMVFGKLAFPTRLGQ [YJL039C/NUP192] the protein stability index (doa10∆) was 3.01 ± 0.073, the protein stability index (pdr5∆) was 2.52 ± 0.062 and the protein stability index (san1∆) was 2.75 ± 0.067. The protein stability index (ubr1∆) was 2.15 ± 0.059.
In the case of ETDHKTNENGETDDNIE [SRB4], the protein stability index (doa10∆) is reported as 3.01 ± 0.22, the protein stability index (pdr5∆) is reported as 3.57 ± 0.15 and the protein stability index (san1∆) is reported as 3.08 ± 0.083. It also gave a protein stability index (ubr1∆) of 3.21 ± 0.089.
EANGATSFDRTKKTITP [RPL3] showed a protein stability index (doa10∆) of 3.12 ± 0.15, a protein stability index (pdr5∆) of 2.91 ± 0.15 and a protein stability index (san1∆) of 2.74 ± 0.12. For the same sequence, the protein stability index (ubr1∆) was 3.17 ± 0.27.
Work on VTRKQEDARRNPNPSSQ [RPC37] yielded a protein stability index (doa10∆) of 3.33 ± 0.087, a protein stability index (pdr5∆) of 3.44 ± 0.094 and a protein stability index (san1∆) of 3.19 ± 0.081. For the same sequence, the protein stability index (ubr1∆) was 3.54 ± 0.061.
Sequence NSLTKYPDLKAFHNNLK [MED1] has a protein stability index (doa10∆) of 2.9 ± 0.11, a protein stability index (pdr5∆) of 3.16 ± 0.089 and a protein stability index (san1∆) of 2.89 ± 0.092. The protein stability index (ubr1∆) was 2.93 ± 0.062.
STDNEAITISNSIDINY [SMC1] gave a protein stability index (doa10∆) of 2.62 ± 0.053, a protein stability index (pdr5∆) of 2.93 ± 0.057 and a protein stability index (san1∆) of 2.67 ± 0.045. The protein stability index (ubr1∆) was 2.88 ± 0.039.
SLDSCTAAFTAMICEAK [YJR042W/NUP85] showed a protein stability index (doa10∆) of 2.79 ± 0.13, a protein stability index (pdr5∆) of 2.51 ± 0.11 and a protein stability index (san1∆) of 2.99 ± 0.081. For the same sequence, the protein stability index (ubr1∆) was 2.81 ± 0.096.
For INSGTNSANGSSLNGTN [SSN3], the protein stability index (doa10∆) was 2.55 ± 0.056, the protein stability index (pdr5∆) was 2.75 ± 0.055 and the protein stability index (san1∆) was 2.82 ± 0.05. It also gave a protein stability index (ubr1∆) of 2.7 ± 0.041.
Sequence ILEHTLFKGTGFNSWEG [PRP8] has a protein stability index (doa10∆) of 2.42 ± 0.12, a protein stability index (pdr5∆) of 2.41 ± 0.12 and a protein stability index (san1∆) of 3.38 ± 0.13. The protein stability index (ubr1∆) was 1.64 ± 0.039.
QLLKEDSEKRNKYAAML [RRP45] gave a protein stability index (doa10∆) of 3.13 ± 0.11, a protein stability index (pdr5∆) of 2.81 ± 0.089 and a protein stability index (san1∆) of 2.75 ± 0.18. It also gave a protein stability index (ubr1∆) of 2.97 ± 0.05.
LKISLIQIFRAHLWQKI [PRP8] gave a protein stability index (doa10∆) of 1.17 ± 0.077, a protein stability index (pdr5∆) of 1.18 ± 0.055 and a protein stability index (san1∆) of 1.13 ± 0.13. It also gave a protein stability index (ubr1∆) of 1.12 ± 0.057.
Work on CQYMVACVPLLPPPEDV [RPN1] yielded a protein stability index (doa10∆) of 2.03 ± 0.046, a protein stability index (pdr5∆) of 2.57 ± 0.073 and a protein stability index (san1∆) of 2.65 ± 0.048. It also gave a protein stability index (ubr1∆) of 2.76 ± 0.053.
SLGDGTNYYLTTARNDL [CSL4] gave a protein stability index (doa10∆) of 2.66 ± 0.068, a protein stability index (pdr5∆) of 2.71 ± 0.068 and a protein stability index (san1∆) of 2.83 ± 0.049. For the same sequence, the protein stability index (ubr1∆) was 2.91 ± 0.1.
Sequence GHYQAFIRDELDENKWY [UBP6] has a protein stability index (doa10∆) of 1.49 ± 0.057, a protein stability index (pdr5∆) of 1.88 ± 0.047 and a protein stability index (san1∆) of 1.53 ± 0.12. It also gave a protein stability index (ubr1∆) of 1.85 ± 0.063.
KESQLPRIQRADPVALY [RPB5] showed a protein stability index (doa10∆) of 2.32 ± 0.069, a protein stability index (pdr5∆) of 2.63 ± 0.058 and a protein stability index (san1∆) of 2.5 ± 0.089. It also gave a protein stability index (ubr1∆) of 2.59 ± 0.048.
QVNGNIRKVSNDRESVL [SMC3] gave a protein stability index (doa10∆) of 3.12 ± 0.15, a protein stability index (pdr5∆) of 1.88 ± 0.079 and a protein stability index (san1∆) of 1.92 ± 0.083. The protein stability index (ubr1∆) was 2.18 ± 0.056.
Sequence SAETLSELIRTTLDAEK [FAS1] has a protein stability index (doa10∆) of 2.78 ± 0.054, a protein stability index (pdr5∆) of 2.73 ± 0.046 and a protein stability index (san1∆) of 2.84 ± 0.044. The protein stability index (ubr1∆) was 2.63 ± 0.053.
EVSGSIQYKKEYEELKE [SMC1] gave a protein stability index (doa10∆) of 3.59 ± 0.15, a protein stability index (pdr5∆) of 3.15 ± 0.14 and a protein stability index (san1∆) of 3.29 ± 0.089. It also gave a protein stability index (ubr1∆) of 3.35 ± 0.068.
Sequence SSQKDGNDFKFNYQGDE [REC8] has a protein stability index (doa10∆) of 3.41 ± 0.067, a protein stability index (pdr5∆) of 3.45 ± 0.072 and a protein stability index (san1∆) of 3.43 ± 0.051. The protein stability index (ubr1∆) was 3.4 ± 0.058.
In the case of GYLDDSEILIISSLMFD [IRR1], the protein stability index (doa10∆) is reported as 2.79 ± 0.071, the protein stability index (pdr5∆) is reported as 2.91 ± 0.06 and the protein stability index (san1∆) is reported as 2.89 ± 0.07. It also gave a protein stability index (ubr1∆) of 2.75 ± 0.046.
Work on DNVSGLTRNAPLDSKDE [SNF2] yielded a protein stability index (doa10∆) of 2.95 ± 0.063, a protein stability index (pdr5∆) of 3.25 ± 0.051 and a protein stability index (san1∆) of 3 ± 0.04. It also gave a protein stability index (ubr1∆) of 3.13 ± 0.043.
With TPMGGFVHYGEIKNDFI [RPL3] the protein stability index (doa10∆) was 3.32 ± 0.093, the protein stability index (pdr5∆) was 3.19 ± 0.092 and the protein stability index (san1∆) was 3.27 ± 0.12. The protein stability index (ubr1∆) was 3.28 ± 0.078.
FSNVNELQEKNVELLNC [YIL149C/MLP2] gave a protein stability index (doa10∆) of 3.09 ± 0.082, a protein stability index (pdr5∆) of 3.29 ± 0.13 and a protein stability index (san1∆) of 3.06 ± 0.083. For the same sequence, the protein stability index (ubr1∆) was 3.1 ± 0.075.
For ARYSIIREINYTMSNHG [RPO31], the protein stability index (ubr1∆) was 1.44 ± 0.23.
For NSTTSGGLFGNKVGSTG [YGR119C/NUP57], the protein stability index (doa10∆) was 3.17 ± 0.13, the protein stability index (pdr5∆) was 3.47 ± 0.19 and the protein stability index (san1∆) was 3.21 ± 0.071. It also gave a protein stability index (ubr1∆) of 3.29 ± 0.17.
